# In PMC3505971 (Nucleic Acids Research, 2012):
# Assays:
# Sa Hfq [1] = molecular target: T1, Sa Hfq (Staphylococcus aureus, UniProt A0A0H3JV59 1-77); assay: fluorescence polarization
# Ec Hfq = Ec Hfq (Escherichia coli, UniProt P0A6X3 1-102); assay: fluorescence polarization
# crystal structure = molecular target: the molecule itself; assay: crystal structure
# Sa Hfq(K33A) = Sa Hfq(K33A) (Staphylococcus aureus, UniProt A0A0H3JV59 1-77, K33A); assay: fluorescence polarization
# Sa Hfq [2] = molecular target: T1, Sa Hfq; assay: fluorescence polarization; remark: listed apart in the source
Binder,Kd (Sa Hfq [1]) [nM],Kd (Sa Hfq(K33A)) [nM],also measured
AAAAAAAAAAAAAAAA (ssRNA) [A16],4.2 ± 0.5,–,Kd (Ec Hfq): 0.4 ± 0.5 nM
GGAGGA (ssRNA) [(GGA)2],450,–,–
Staphylococcus aureus Hfq (natural protein) MIANENIQDKALENFKANQTEVTVFFLNGFQMKGVIEEYDKYVVSLNSQGKQHLIYKHAISTYTVETEGQASTESEE,–,–,stoichiometry N (crystal structure): 6
AUAUAUA (ssRNA) [(AU)3A],2.7 ± 2.3,309 ± 40.2,–
ACACACA (ssRNA) [(AC)3A],5.8 ± 7.3,–,–
AGAGAGA (ssRNA) [(AG)3A],3.5 ± 0.3,11.9 ± 3,–
AAAAAAAAAAAAAAAAAAAAAAAAAAA (ssRNA) [A27],109 ± 13,–,Kd (Ec Hfq): 0.85 ± 0.08 nM
AAAAAAA (ssRNA) [(AA)3A = A7],19.5 ± 6.4,406 ± 112,–
AUUUUUG (ssRNA) [AU5G],–,–,binding result (Sa Hfq [2]): binds
UUUUUU (ssRNA) [U6],69.8 ± 7,72.7 ± 21.9,–
GGAGGAGGAGGAGGAGGAGGAGGAGGA (ssRNA) [(GGA)9],350,–,–
AAAAAAG (ssRNA) [A6G],–,–,binding result (Sa Hfq [2]): binds
